Here are results for 1 substance from paper PMC9616408.

The assay has as its target SD93 NA K385N/N387K mutant, recombinant NA head domain (residues 82-469) fused to a VASP tetramerization domain (not stated | influenza A virus A/Shandong/9/1993 (H3N2)). The assay is described as follows: SEC; HiLoad 16/100 Superdex 200 prep grade, 20 mM Tris-HCl pH 8.0, 100 mM NaCl, 10 mM CaCl2; NA head domain fused to a VASP tetramerization domain. A general note: SEC sorts molecules by how far they enter the pores of the column.

As a reminder, the stoichiometry N is a count of units in the complex or per binding partner.

In the case of “SD93 NA K385N/N387K mutant, recombinant NA head domain (residues 82-469) fused to a VASP tetramerization domain (domain or fragment)”, the stoichiometry N was found to be 4.
